These results are taken from the RNAGym collection of RNA variant scans (doi:10.7554/elife.80360).

The chains are these.
B1: Hairpin Ribozyme (parent)
chain: GUCCUCUUUCACGUGCGCGUGAAAGAGAGAAGUGAACCAGAGAAACACACGUUGUGGUAUAUUACCUGGUA

The data set covers variants of B1. The experiment in a line: self-cleavage, relative activity (ratio to wild type); higher = more cleavage; co-transcriptional.
Take G1C A22U: the self-cleavage stood at 0.103.
In the case of A23U U62A, the self-cleavage is 0.106.
For C37G G40U, the self-cleavage came to 0.186.
In the case of G13A G51C it was 0.68; in that of C4G U7G, 0.144.
In the case of C48A G51C it was 0.152; in that of U62A A71U, 0.169.
The value for G40C C66A was 0.105.
With G17U A31U, the self-cleavage is 0.104.
In the case of C3U A43U it was 0.207; in that of C4A A41G, 0.13; in that of A24U U67C, 0.207.
The value for G19A C65G was 0.324; that for A49G U58A was 0.217.
The value for A41U U53C was 1.25.
On to G27A G32U, for which the self-cleavage was determined as 0.0607.
In the case of G21C A24C it was 0.556; in that of A49G G56C, 0.155.
In the case of A47C U63G it was 0.104; in that of C12G G42A, 0.276; in that of C3G A45U, 0.122.
The value for U7A A26C was 0.174; that for U14G G40U was 0.2.
As for U5G A45C, the self-cleavage stood at 0.122.
In the case of C46U C50U it was 0.227; in that of G29U A59C, 0.0619; in that of C6G G51A, 0.682.
The value for A23G A28G was 1.23; that for U9G U14A was 0.612.
In the case of G32A G51U it was 0.122; in that of A31G U55C, 0.28.
Regarding C12G G27C, the self-cleavage was determined as 0.226.
In the case of C38U G56U it was 0.14.
The value for G42C G68C was 0.151.
The value for A39C A45U was 0.231; that for C50U U63G was 0.198.
Consider C37A U53G, for which the self-cleavage amounted to 0.23.
Take G32A U62A: the self-cleavage amounted to 0.162.
Consider C38A A44C, for which the self-cleavage came to 0.108.
For G19U A24U, the self-cleavage is 0.684.
With A26G A64G, the self-cleavage was determined as 0.55.
The value for G25U A39U was 0.242.
U5C A30U: the self-cleavage came to 0.11.
In the case of C10A U63C it was 0.207.
The value for U9A A49C was 0.254; that for C50U A61U was 0.13.
As for A30C C65A, the self-cleavage came out at 0.0386.
In the case of G51A it was 1.03; in that of C4G U53C, 0.264; in that of U5C A43U, 0.0569.
In the case of U20G G32A it was 0.124.
The value for A35U U52G was 0.553.
In the case of A44U U62A, the self-cleavage was determined as 0.26.
In the case of U58C U62G it was 0.242; in that of U55C U58C, 0.475.
In the case of G1U A35U it was 0.126; in that of A59C C65U, 0.23; in that of G27A U62G, 0.221.
In the case of A45C A47U, the self-cleavage came out at 0.212.
Regarding G17A U52C, the self-cleavage was found to be 1.11.
C16U A64G: the self-cleavage stood at 0.505.
In the case of A45U C65A it was 0.131; in that of A30C G34C, 0.79; in that of C12U A23U, 0.807.
Regarding A28U G54A, the self-cleavage is 0.32.
Turning to A28U G54C, the self-cleavage came out at 0.219.
In the case of A24C A49U it was 0.119; in that of G40A G54U, 0.183.
The value for G1U G32C was 0.0843.
The value for U7A A43U was 0.216; that for C16U A59U was 0.173.
Turning to A49U G57C, the self-cleavage was found to be 0.0724.
Consider C6A C46U, for which the self-cleavage worked out at 0.171.
The value for A43U U55A was 0.129.
In the case of U58A A61C it was 0.0874; in that of G17U G19U, 0.581.
In the case of U2A A26U, the self-cleavage stood at 0.253.
U9C C48U: the self-cleavage turned out to be 0.0794.
With A31C U60G, the self-cleavage worked out at 0.194.
For the variant G13U U62G, the self-cleavage is 0.102.
For G40U A71G, the self-cleavage is 0.209.
For the variant C10G G15C, the self-cleavage is 0.962.
On to G19C A59G, for which the self-cleavage came out at 0.153.
A31U A39C: the self-cleavage worked out at 0.0658.
As to U33C U63G, the self-cleavage was found to be 0.0654.
G40A C65A: the self-cleavage worked out at 0.315.
The value for C48A U53A was 0.228.
As for U62C C66A, the self-cleavage worked out at 0.13.
In the case of A11C U52G it was 0.857.
In the case of G29C C66A it was 0.182; in that of A26G A39C, 0.571; in that of U5C G57U, 0.138.
On to G40U A59C, for which the self-cleavage was determined as 0.0879.
The value for U8C U60A was 0.554; that for A49C U67C was 0.0984.
For the variant C16A G40C, the self-cleavage was determined as 0.157.
In the case of A11C C50A it was 0.288; in that of C3U U20C, 0.38; in that of A41G U55C, 0.23.
The value for U20C U62C was 0.462; that for U9C G25U was 0.386.
The value for G1C C10A was 0.102.
As to C6G U33C, the self-cleavage was found to be 0.206.
For the variant G15C G42C, the self-cleavage came to 0.369.
Turning to C37G C50G, the self-cleavage is 0.0454.
The value for A23U A71C was 1.28; that for U7C G21U was 0.565; that for C3A A26U was 0.653.
The value for U5A G21C was 0.156; that for U2A A59C was 0.0974; that for G29A U63G was 0.116.
In the case of C18G A24U it was 0.729; in that of A22C A39C, 0.539; in that of U7C G57C, 0.107.
As to G27U G40A, the self-cleavage worked out at 0.117.
As to C16G A49C, the self-cleavage worked out at 0.117.
In the case of G13A A71U it was 0.746; in that of G32U G34C, 0.18; in that of G19C U58C, 0.815.
In the case of U53A A64U it was 0.143; in that of C38G A43U, 0.154.
In the case of U52G G57C it was 0.216.
With A44G G68U, the self-cleavage turned out to be 0.173.
The value for A39C U62C was 0.161.
In the case of C4A G56A it was 0.114; in that of A31C U33A, 0.241; in that of A47U C50A, 0.113.
Turning to G40C G69A, the self-cleavage amounted to 0.111.
As to A30C A71U, the self-cleavage turned out to be 0.104.
The value for U9A U60C was 0.993; that for U5A A71G was 0.264; that for U7G C38U was 0.377.
As for U8C G13U, the self-cleavage is 0.529.
In the case of G1A A59G it was 0.237.
In the case of G17A A44U it was 0.183; in that of C12A G15U, 0.805; in that of C3U A61C, 0.164.
As to C18G G29U, the self-cleavage was 0.201.
The value for C6A U53A was 0.456.
In the case of C16A U52A it was 0.982.
As to C16A A24C, the self-cleavage was 0.71.
Take U20A A24U: the self-cleavage worked out at 0.732.
In the case of G29U G34U it was 0.124; in that of A24C A28C, 0.349; in that of G1A G68U, 0.176.
Take G29C C37G: the self-cleavage was determined as 0.084.
Regarding A24G G51U, the self-cleavage came out at 0.881.
The value for G17A G27A was 0.547.
In the case of U55C A71U it was 0.16; in that of G29U G42U, 0.107.
The value for G34U A47U was 0.876; that for C12A G29A was 0.162.
A49U U67C: the self-cleavage was determined as 0.11.
As to G19U C38A, the self-cleavage is 0.141.
In the case of G15A U53G it was 0.687.
With G15C U62A, the self-cleavage is 0.14.
In the case of C6U A24G it was 0.353; in that of U8G A47U, 0.168; in that of A11U G68U, 0.292.
A41C C66G: the self-cleavage is 0.292.
The value for G13A C46A was 0.124; that for G27U G69C was 0.2; that for G13A U63A was 0.194.
On to G56U C65U, for which the self-cleavage worked out at 0.276.
For the variant G29A A36U, the self-cleavage is 0.278.
In the case of G40C U52C it was 0.137.
In the case of G1U U8C it was 0.118.
